Assay results published in PMC3707680, “Structural and Pharmacological Characterization of Novel Potent and Selective Monoclonal Antibody Antagonists of Glucose-dependent Insulinotropic Polypeptide Receptor” (The Journal of Biological Chemistry, 2013).
Where two headings read alike, the source gives them in different places.

Key:
[1] = target: T1, human GIP receptor on HEK293 cells (human) (UniProt P48546)
T1 sequence: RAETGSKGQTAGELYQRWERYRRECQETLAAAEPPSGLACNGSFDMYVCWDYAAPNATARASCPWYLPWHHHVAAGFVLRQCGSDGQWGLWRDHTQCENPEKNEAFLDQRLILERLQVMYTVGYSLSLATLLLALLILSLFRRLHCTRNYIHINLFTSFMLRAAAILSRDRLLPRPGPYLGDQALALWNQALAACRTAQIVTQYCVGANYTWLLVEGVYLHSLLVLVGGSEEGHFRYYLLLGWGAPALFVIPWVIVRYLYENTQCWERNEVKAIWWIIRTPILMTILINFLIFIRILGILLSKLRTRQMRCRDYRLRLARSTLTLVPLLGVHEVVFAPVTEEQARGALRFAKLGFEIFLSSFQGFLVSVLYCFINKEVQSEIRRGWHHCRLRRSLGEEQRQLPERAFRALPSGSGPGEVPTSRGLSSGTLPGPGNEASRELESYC

GIP(1–42) peptide = GIP(1–42) peptide (UniProt P09681)
[2] = target: T1, human GIP receptor on HEK293 cells (human); assay: fluorescent microvolume assay technology (FMAT) on cells; receptor ligand competition with unlabelled peptides against AlexaFluor 647-labeled GIP on human GIPr-overexpressing cells; data not shown
biotinylated GIPr ECD = target: T2, biotinylated GIPr ECD (Homo sapiens, biotin (EZ-link Sulfo-NHS-LC-Biotin), positions not stated); assay: BLI; Octet RED (reflectometric interference spectroscopy); biotinylated GIPr ECD at 1.2 μg/ml on Super Streptavidin biosensors; scFv at ~0.5 μM (12.5 μg/ml), single concentration; PBS with kinetics buffer; 1:1 Langmuir; details: both partners purified
T2 construct: glucose-dependent insulinotropic polypeptide receptor, human, extracellular domain; same construct as m4, biotinylated; held on Super Streptavidin biosensors; also called soluble biotinylated GIPr ECD
T2 chain: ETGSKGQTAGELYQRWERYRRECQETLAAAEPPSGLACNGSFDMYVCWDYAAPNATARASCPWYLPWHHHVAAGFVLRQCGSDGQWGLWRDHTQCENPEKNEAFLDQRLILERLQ

[3] = target: T3, human GIP receptor on HEK293 cells (human, UniProt P48546)
T3 construct: glucose-dependent insulinotropic polypeptide receptor, human, full-length receptor gene; also called HEK293 human GIPr; hGIPr; source: HEK293, stably transfected (pIRESneo3), on cells

[4] = target: T3, human GIP receptor on HEK293 cells; assay: fluorescent microvolume assay technology (FMAT) on cells; receptor ligand competition: dilution series of antibody against 0.5 nM AlexaFluor 647-labeled GIP on HEK293 human GIPr cells, Hanks' balanced salt solution with 0.1% BSA, room temperature, 1–2 h; details: one partner purified
[5] = target: T4, rat GLP-1 receptor on overexpressing cells (Rattus norvegicus, UniProt P32301); assay: fluorescent microvolume assay technology (FMAT) on cells; 0.25 μg/ml IgG with AlexaFluor 647-labeled goat anti-human IgG on stably transfected cells (5000 cells a well), Hanks' balanced salt solution with 0.1% BSA, room temperature, 3 h; details: one partner purified
T4 construct: glucagon-like peptide 1 receptor, rat; also called rGLP-1r; source: stably transfected cell line, on cells
T4 sequence (P32301 22-463): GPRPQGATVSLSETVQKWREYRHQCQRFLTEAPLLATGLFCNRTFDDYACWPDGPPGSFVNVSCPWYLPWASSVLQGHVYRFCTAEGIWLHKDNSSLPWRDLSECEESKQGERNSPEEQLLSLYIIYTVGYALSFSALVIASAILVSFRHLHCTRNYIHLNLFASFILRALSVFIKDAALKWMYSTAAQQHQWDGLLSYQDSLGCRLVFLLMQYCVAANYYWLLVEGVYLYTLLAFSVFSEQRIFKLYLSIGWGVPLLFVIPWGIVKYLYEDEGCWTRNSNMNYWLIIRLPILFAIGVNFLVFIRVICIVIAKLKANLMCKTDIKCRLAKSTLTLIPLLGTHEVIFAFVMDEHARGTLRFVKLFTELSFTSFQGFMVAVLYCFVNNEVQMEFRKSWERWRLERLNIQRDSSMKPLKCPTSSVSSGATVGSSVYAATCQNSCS

[6] = target: T5, dog GLP-1 receptor on overexpressing cells (Canis lupus familiaris, UniProt A0A8I3NUR9); assay: as above; details: one partner purified
T5 construct: glucagon-like peptide 1 receptor, dog; also called dGLP-1r; source: stably transfected cell line, on cells

[7] = target: T6, mouse GLP-1 receptor on overexpressing cells (Mus musculus, UniProt O35659); assay: as above; details: one partner purified
T6 construct: glucagon-like peptide 1 receptor, mouse; also called mGLP-1r; source: stably transfected cell line, on cells
T6 sequence (O35659 22-463): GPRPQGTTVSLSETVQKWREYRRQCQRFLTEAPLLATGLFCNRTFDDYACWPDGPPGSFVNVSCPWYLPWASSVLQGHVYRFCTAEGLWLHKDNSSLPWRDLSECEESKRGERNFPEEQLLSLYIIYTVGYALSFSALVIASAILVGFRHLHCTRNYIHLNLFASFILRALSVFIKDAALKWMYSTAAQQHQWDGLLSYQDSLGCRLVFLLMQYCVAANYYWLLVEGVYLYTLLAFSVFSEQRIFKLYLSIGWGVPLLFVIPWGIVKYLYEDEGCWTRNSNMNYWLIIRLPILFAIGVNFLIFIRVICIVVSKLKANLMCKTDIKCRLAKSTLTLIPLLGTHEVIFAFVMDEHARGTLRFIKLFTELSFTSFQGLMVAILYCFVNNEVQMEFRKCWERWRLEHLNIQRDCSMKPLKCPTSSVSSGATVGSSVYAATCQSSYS

[8] = target: T7, rat glucagon receptor on overexpressing cells (Rattus norvegicus, UniProt P30082); assay: as above; details: one partner purified
T7 construct: glucagon receptor, rat; also called GCGr; rGCGr; source: stably transfected cell line, on cells
T7 sequence (P30082 27-485): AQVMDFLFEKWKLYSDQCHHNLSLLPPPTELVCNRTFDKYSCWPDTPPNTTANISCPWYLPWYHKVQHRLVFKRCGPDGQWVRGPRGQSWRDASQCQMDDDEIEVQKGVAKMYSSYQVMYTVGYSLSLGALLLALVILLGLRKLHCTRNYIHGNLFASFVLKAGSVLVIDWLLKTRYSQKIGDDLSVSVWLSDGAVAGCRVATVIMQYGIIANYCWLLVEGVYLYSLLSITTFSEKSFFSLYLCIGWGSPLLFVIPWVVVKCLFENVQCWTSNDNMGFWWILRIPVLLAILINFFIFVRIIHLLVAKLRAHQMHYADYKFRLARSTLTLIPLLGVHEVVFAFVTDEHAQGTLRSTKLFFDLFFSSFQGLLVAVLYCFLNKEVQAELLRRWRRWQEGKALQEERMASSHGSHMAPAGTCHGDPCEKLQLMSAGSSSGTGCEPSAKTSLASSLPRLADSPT

[9] = target: T8, human glucagon receptor on overexpressing cells (Homo sapiens, UniProt P47871); assay: as above; details: one partner purified
T8 construct: glucagon receptor, human; also called GCGr; hGCGr; source: stably transfected cell line, on cells
T8 sequence (P47871 26-477): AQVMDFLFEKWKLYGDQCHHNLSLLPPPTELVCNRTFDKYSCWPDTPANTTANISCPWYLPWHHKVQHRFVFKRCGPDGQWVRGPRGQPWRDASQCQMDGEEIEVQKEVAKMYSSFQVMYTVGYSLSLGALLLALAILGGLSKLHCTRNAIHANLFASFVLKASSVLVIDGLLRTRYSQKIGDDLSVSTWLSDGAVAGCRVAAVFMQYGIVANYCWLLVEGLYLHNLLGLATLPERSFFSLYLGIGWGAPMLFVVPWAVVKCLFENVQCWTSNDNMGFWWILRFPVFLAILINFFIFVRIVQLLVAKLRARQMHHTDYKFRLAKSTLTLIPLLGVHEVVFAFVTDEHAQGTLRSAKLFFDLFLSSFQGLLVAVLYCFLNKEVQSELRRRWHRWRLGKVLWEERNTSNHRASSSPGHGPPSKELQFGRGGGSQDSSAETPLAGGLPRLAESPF

[10] = target: T9, mouse glucagon receptor on overexpressing cells (Mus musculus, UniProt Q61606); assay: as above; details: one partner purified
T9 construct: glucagon receptor, mouse; also called GCGr; mGCGr; source: stably transfected cell line, on cells
T9 sequence (Q61606 27-485): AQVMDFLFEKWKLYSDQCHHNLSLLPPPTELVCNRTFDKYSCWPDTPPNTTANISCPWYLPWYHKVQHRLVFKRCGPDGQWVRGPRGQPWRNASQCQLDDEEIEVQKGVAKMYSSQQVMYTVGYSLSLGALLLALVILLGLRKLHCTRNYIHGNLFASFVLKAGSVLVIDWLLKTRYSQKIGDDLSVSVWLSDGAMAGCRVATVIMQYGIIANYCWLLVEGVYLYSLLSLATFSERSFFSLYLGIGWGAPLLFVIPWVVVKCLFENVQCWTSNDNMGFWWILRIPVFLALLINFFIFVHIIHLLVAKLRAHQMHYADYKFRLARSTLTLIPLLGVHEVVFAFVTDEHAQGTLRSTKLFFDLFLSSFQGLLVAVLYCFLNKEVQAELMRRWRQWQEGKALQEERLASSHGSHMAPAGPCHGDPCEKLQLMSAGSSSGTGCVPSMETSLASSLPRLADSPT

[11] = target: T10, mouse GIP receptor on HEK293 cells (Mus musculus, UniProt Q0P543); assay: as above; details: one partner purified
T10 construct: glucose-dependent insulinotropic polypeptide receptor, mouse, full-length receptor gene; also called mGIPr; source: HEK293, stably transfected (pIRESneo3), on cells
T10 sequence (Q0P543 19-460): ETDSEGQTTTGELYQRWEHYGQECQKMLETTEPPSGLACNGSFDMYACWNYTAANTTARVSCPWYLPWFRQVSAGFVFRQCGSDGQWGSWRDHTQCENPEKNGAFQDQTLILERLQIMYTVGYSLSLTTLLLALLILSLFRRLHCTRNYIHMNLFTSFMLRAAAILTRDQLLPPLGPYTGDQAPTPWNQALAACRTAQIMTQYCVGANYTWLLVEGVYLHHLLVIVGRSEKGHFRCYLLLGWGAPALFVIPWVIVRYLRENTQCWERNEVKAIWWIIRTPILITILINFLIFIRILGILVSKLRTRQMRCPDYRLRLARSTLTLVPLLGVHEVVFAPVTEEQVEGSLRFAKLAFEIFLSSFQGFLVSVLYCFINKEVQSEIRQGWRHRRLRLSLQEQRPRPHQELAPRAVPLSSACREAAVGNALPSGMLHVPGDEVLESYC

[12] = target: T11, human GLP-1 receptor on overexpressing cells (Homo sapiens, UniProt P43220); assay: as above; details: one partner purified
T11 construct: glucagon-like peptide 1 receptor, human; also called hGLP-1r; source: stably transfected cell line, on cells
T11 sequence (P43220 24-463): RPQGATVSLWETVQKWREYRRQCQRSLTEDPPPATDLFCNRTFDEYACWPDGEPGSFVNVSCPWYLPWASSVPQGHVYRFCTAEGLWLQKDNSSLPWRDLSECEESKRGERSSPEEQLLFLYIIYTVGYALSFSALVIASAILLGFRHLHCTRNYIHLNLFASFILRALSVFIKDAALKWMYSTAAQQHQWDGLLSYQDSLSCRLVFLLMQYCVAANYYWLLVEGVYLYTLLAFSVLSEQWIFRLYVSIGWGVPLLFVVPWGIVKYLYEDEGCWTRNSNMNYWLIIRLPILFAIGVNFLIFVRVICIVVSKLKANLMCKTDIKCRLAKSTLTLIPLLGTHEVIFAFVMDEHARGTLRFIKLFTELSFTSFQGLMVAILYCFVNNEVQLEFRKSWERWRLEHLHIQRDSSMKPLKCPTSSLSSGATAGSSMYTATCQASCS

[13] = target: T12, GIPr ECD (extracellular domain of the human GIP receptor) (Homo sapiens); assay: SPR; Biacore 2000; Gipg013 IgG amine-coupled to a CM5 chip at low density (~139 resonance units), GIPr ECD in solution; 25 °C, 30 μl/min, HBS-N (10 mM HEPES, pH 7.4, 150 mM sodium chloride); 1:1 Langmuir model; details: both partners purified
T12 construct: glucose-dependent insulinotropic polypeptide receptor, human, extracellular domain; also called GIPr extracellular domain
T12 chain: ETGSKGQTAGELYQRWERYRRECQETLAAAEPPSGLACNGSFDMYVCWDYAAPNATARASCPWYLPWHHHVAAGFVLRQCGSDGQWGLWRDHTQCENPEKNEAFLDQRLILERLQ

[14] = target: T3, human GIP receptor on HEK293 cells; remark: listed apart in the source
[15] = target: T12, GIPr ECD (extracellular domain of the …); assay: SPR; BIAcore, Gipg013 Fab and GIPr ECD; who was immobilised is not told for the Fab; details: both partners purified

Molecule: Pro3GIP (peptide)
- cAMP HTRF assay, agonism in HEK293 human GIPr cells (partial, to 83% of the response with GIP) [1]: 180 nM

Molecule: biotinylated GIPr ECD (domain or fragment)
- cAMP assay on HEK293 GIPr cells: soluble GIPr ECD competes with the cell surface GIPr for GIP (GIP(1–42) peptide): 7 µM

Molecule: GIP(7–30) (peptide)
- IC50 [2]: 83 nM
- cAMP HTRF assay, antagonism of GIP-induced cAMP production in HEK293 human GIPr cells [1]: 230 nM

B1: Gipg013 scFv (scFv, V domains shown)
VH: QVQLQQSGAEVKKPGSSVKVSCKASGGTFSSYAISWVRQAPGQGLEWMGGIIPTFGTANYAQKFQGRVTITADESTSTAYMELSSLRSEDTAVYYCAQGPIVGAPTDYWGKGTLVTVSS
VL: SYVLTQPPSASGTPGQRVAISCSGSNSNIGSNTVHWYQQLPGAAPKLLIYSNNQRPSGVPDRFSGSNSGTSASLAISRLQSEDEADYYCAAWDDSLNGVVFGGGTKVTVL
notes: VH as in the heavy chain of m1; VL as in the light chain of m1; phage vector pCantab6 is named for the libraries
- Kd (biotinylated GIPr ECD): 25 nM
- koff (biotinylated GIPr ECD): 0.00188 s⁻¹
- kon (biotinylated GIPr ECD): 74500 M⁻¹ s⁻¹
- cAMP HTRF assay, antagonism of GIP-induced cAMP production in HEK293 human GIPr cells (blocks GIP on GIPr) [3]: 233 nM

B2: Gipg013 IgG (antibody, V domains shown)
VH: QVQLQQSGAEVKKPGSSVKVSCKASGGTFSSYAISWVRQAPGQGLEWMGGIIPTFGTANYAQKFQGRVTITADESTSTAYMELSSLRSEDTAVYYCAQGPIVGAPTDYWGKGTLVTVSS
VL: SYVLTQPPSASGTPGQRVAISCSGSNSNIGSNTVHWYQQLPGAAPKLLIYSNNQRPSGVPDRFSGSNSGTSASLAISRLQSEDEADYYCAAWDDSLNGVVFGGGTKVTVL
notes: VH of Gipg013; also in PDB 4HJ0 (heavy chain of the Fab, chains P and C); heavy chain constant region of human IgG1 (full-length antibody in the IgG1 format); the light chain is in PDB 4HJ0 (chains Q and D); IgG1; converted from the scFv clone; also called GIP013; Gipr013; source: mammalian cells (variable genes cloned into the pEU vectors), purified; copies: 2 + 2
- IC50 [4]: 17.2 ± 6 nM
- binding result [5]: no binding (tested: 0.25 μg/ml)
- binding result [6]: no binding (tested: 0.25 μg/ml)
- binding result [7]: no binding (tested: 0.25 μg/ml)
- binding result [8]: no binding (tested: 0.25 μg/ml)
- binding result [9]: no binding (tested: 0.25 μg/ml)
- binding result [10]: no binding (tested: 0.25 μg/ml)
- binding result [11]: binds
- binding result [12]: no binding (tested: 0.25 μg/ml)
- Kd [13]: 23 nM
- koff [13]: 0.00369 s⁻¹
- kon [13]: 159000 M⁻¹ s⁻¹

B3: Gipg013 Fab (Fab, V domains shown)
VH: QVQLQQSGAEVKKPGSSVKVSCKASGGTFSSYAISWVRQAPGQGLEWMGGIIPTFGTANYAQKFQGRVTITADESTSTAYMELSSLRSEDTAVYYCAQGPIVGAPTDYWGKGTLVTVSS
VL: SYVLTQPPSASGTPGQRVAISCSGSNSNIGSNTVHWYQQLPGAAPKLLIYSNNQRPSGVPDRFSGSNSGTSASLAISRLQSEDEADYYCAAWDDSLNGVVFGGGTKVTVL
notes: heavy chain of the Fab, PDB 4HJ0 chains P and C (final model Gln3-Val217, 206 residues); as the heavy chain of m1 up to the papain cut; light chain of the Fab, PDB 4HJ0 chains Q and D (final model Ser1-Glu213, 211 residues); as the light chain of m1; also called Gip013 Fab; source: papain digestion of the antibody
- cAMP HTRF assay, antagonism of GIP-induced cAMP production in HEK293 human GIPr cells (blocks GIP on GIPr) [14]: 102 nM
- Kd [15]: 40 nM
